# Reference: the DeepSol protein solubility set
# Assay: soluble on expression in E. coli; label from the status in PepcDB or PDB records
row,Sequence,soluble on expression in E. coli
1,MITSTTTDYKNFFKHSAHPANAEQYFRELLDKRERRYEDLCRNIISDMNQYGLSVVDDFLGMETGLKILNEVRSMYNAGAFQDGQVVTNQTPDAPAVRGDKIRGDKIKWVGGNEPGCSNVWYLTNQIDSVVYRVNTMKDNGILGNYHIRERTRAMVACYPGSGTHYVMHVDNPQKDGRVITAIYYLNINWDARESGGILRIRPTPGTTVADIEPKFDRLIFFWSDIRNPHEVQPAHRTRYAITVWYFDAKEREEALIRAKLENSKTNNLAAQAQAQQAEPDSTTTPPAAPASSASSLPVSMSTGTGALNANVSSNSCATSSEICT,not soluble
2,MITVSIAGGSQPEILQLVKKALKEAEQPLQFIVFDTNENLDTENLWKYVHCSDEAAVAQEAVSLVATGQAQILLKGIIQTHTLLKEMLKSEHQLKNKPILSHVAMVELPAGKTFLLTDCAMNIAPTQATLIEIVENAKEVAQKLGLHHPKIALLSAAENFNPKMPSSVLAKEVTAHFNDQQEATVFGPLSLDLATSEEAVAHKRYSGPIMGDADILVVPTIDVGNCLYKSLTLFGHAKVGGTIVGTKVPVVLTSRSDSTESKFHSLRFAMRQVHHHHHH,soluble
3,MIVDTSVWIAYLSTSESLASRWLADRIAADSTVIVPEVVMMELLIGKTDEDTAALRRRLLQRFAIEPLAPVRDAEDAAAIHRRCRRGGDTVRSLIDCQVAAMALRIGVAVAHRDRDYEAIRTHCGLRTEPLF,not soluble
4,MIVGEDQLWGRRALEFVDSVERLEAPALISRFESLIASCGFTAYIMAGLPSRNAGLPELTLANGWPRDWFDLYVSENFSAVDPVPRHGATTVHPFVWSDAPYDRDRDPAAHRVMTRAAEFGLVEGYCIPLHYDDGSAAISMAGKDPDLSPAARGAMQLVSIYAHSRLRALSRPKPIRRNRLTPRECEILQWAAQGKTAWEISVILCITERTVKFHLIEAARKLDAANRTAAVAKALTLGLIRL,not soluble
5,MIVGRDGVGVVEHAEQGPRIAVAVVTMGNRPAEVDALLASVAKQDLPPARIVIVGNGCPLPEFARRLDLPGEVTGIEVDENLGCPGGRNVALAKLREFGDVDVVVELDDDGLLVDADVLRRVRDLYAADPRLGIVGFRIADENGETQRRHVPRVGKSDPLRGGPVTGFLGGGHALSMAMLARTGDWPAEFFFAHEETDLAWRATDAGWTILYAPELLLQHPKTSPARHAIYHRVTARNRVWLARRRLPLPLIPVHLGIWIAVTLVRTRSAGGLRAWFGGFMEGVRTSGGERRPMRWRTVWRLTRLGRPPVILEHHHHHH,not soluble
6,MIVSFKCVHTRYLFLQGKTRLWPSIKSVAERKLAMLDAATSILDLRSPPGNRLEALDGSRSGQYSVRINAPFRICFVWSINGPEDVEIVDYH,not soluble
7,MIWIVGSGTCRGQTTERAKEIIERAEVIYGSRRALELAGVVDDSRARILRSFKGDEIRRIMEEGREREVAVISTGDPMVAGLGRVLREIAEDVEIKIEPAISSVQVALARLKVDLSEVAVVDCHAKDFDAELTELLKYRHLLILADSHFPLERLGKRRVVLLENLCMEGERIREGNADSIELESDYTIIFVEREVME,soluble
8,MIYRFTIISDEVDDFVREIQIDPEATFLDFHEAILKSVGYTNDQMTSFFICDDDWEKEKEVTLEEMDDNPEMDSWIMKETTISELVEDEKQKLLYVFDYMTERCFFIELSEIITGKDMNGAKCTKKSGDAPPQTVDFEEMAAASGSLDLDENFYGDQDFDMEDFDQEGFDIGGNAGGSYEEEKFLEHHHHHH,soluble
9,MKAMPIDDPIDGYVAELSRALHGPRRAKRDLIAEVRDGLIDAAEAYQAAGLDRPEAERRAVAEFGTVGEIAPGLQEELAAATGQRLGALLFLSAPRSPGT,not soluble
10,MKANRSIACLLLAALPTLASAHVAEKVETLHDQALAEIPGHRGLMLTVSFKPGQVSAPHVHPGSVFVYVLEGTVQTQLEGGSVETYTVGQSWYEPANVPHLLARNPDPMKPAKLLVWELLKEGDPILKPLERGAH,not soluble
11,MKASYLETLDRIKDEHAEMSKHVNQQRSDIEKVALEKENMNRSYMTYAEVSNTLRSDLRKAEEINKRLQEFIMQSLAPQLSQDNQANCLAALEAFKTASPRENGNGAPALPPGFPPGAAGMLGMMPNMPFGMSPAMSQLFNQFASPHVNGGDGAGGSSGGASEAKKAKLEDPDDGELEIDVTNDDHPSTASNGGAANKNGRDSTNSVASSGASTPSIASNSRARQQQQPLAGLQGLEQMNFLAGFNPNLLRQASAAGGFNFLNDPHAQARLAAAIGQIGSRPAYSFKIVDGGVPTPTSFPPDAQKGPGIPTGLKKKMELNHGEVVCAATISRDNSRVYTGGKGCVKIWDVKESDISGATVVNRPPIASLDCLKENYIRSCKLFEDGNTLLIGGEASTVALWDLTTETKTLDLETDSQACYALAMSPDEKLLFACLADGNILIYDIHNKVKVGTLPGHQDGASCLDLSKDGTKLWSGGLDNSVRCWDLAQRKEVAKHDFASQVFSLGCCPNDEWVAVGMENNYVEVLSTTGKEKYQLTQHESCVLSLKFAHSGKFFISTGKDNALNAWRTPYGASLFQLKENSSVLSCDISFDDSLIVTGSGEKKATLYAVEY,not soluble
12,MKATLHPYQEYSKNFILDHPYCALMLDMGLGKTLSSLTAIDELLHTFEIIENVLVIAPLSVAEKTWTDEIEKWDHLQHLTFSKVLGNPKQREEALFKKADVYLINRENVEWLVNYYQRNWPFKTVIIDELSSFKSSSAKRFKALRKVRPKMERVIGLTGTPSPNSLMDLWAQMYLLDQGERLGKTITQYRNKYFVPAQKNGHIVYSWQLIPGAEEAIYNKISDICVSMKAKDYLRLPPRTENIIELDLNPTSWKQYKELEREYVLELEGTDVVASNAATLSNKLLQLSNGAVYDENGDGREIHQEKLNALERVIEDAQGQSVLVFYQYQHDLERIQARFKQAKALNVSDGDIEKWNEGKISLLLAHPQSAGHGLNLQKGGHIIVWFGLTWSLEFYQQANARLDRQGQTQPVIIHHLVTKGTIDEQVIKALQAKEQGQSALMAAVKAKIEEYRGDKLG,not soluble
13,MKATTVKENEVKDDRKLSLNEMLRKRCLQVKNTKMKNSSMPKFQYFVRLNGKTRTLNVNASDTVEQGKMQLCHNARSTRMSYGGKPLSDQITFGEYNISNNSTMDLHFRI,not soluble
14,MKAVIAKNEEQLKDAFYVREEVFVKEQNVPAEEEIDELENESEHIVVYDGEKPVGAGRWRMKDGYGKLERICVLKSHRSAGVGGIIMKALEKAAADGGASGFILNAQTQAVPFYKKHGYRVLSEKEFLDAGIPHLQMMKD,soluble
15,MKAVQGDPNWNLVTDTYIEPNNFAELFSLLVPCHPKGEGKERTILVWKEKEFYKEENLAAFIVYGMNKAKKLPQFHKDEIPTLVRILRLCQEIGWYEEANDFMIAQGLAEFVHTSLEYETWDLLTQSVALNYLIIKYRIGELTDRDIEIWDRVKFNEKCITDCKHLLSHKEVLEFTFFYMCKRAKSLSKEQLNSDMMSLAMYCNTFVYDLYTHDLLRKYRKCTDFLSYYGPSQAVLACQRAVLSQISDRLDPLKTTHVDDYLYVMKEMMEHMTIGVMDRYGHFIGKLLSYVPFFEMIQVPQHAYYCEELLYICKGIEYKEETLRNYIFIQLHDCLPSFFRLFLKNKRYATIHDILFYWCDDEQRMSLEKKYNLSFIYEKYACG,not soluble
16,MKAVSRVHITPHMHWDREWYFTTEESRILLVNNMEEILCRLEQDNEYKYYVLDGQTAILEDYFAVKPENKDRVKKQVEAGKLIIGPWYTQTDTTIVSAESIVRNLMYGMRDCLAFGEPMKIGYLPDSFGMSGQLPHIYNGFGITRTMFWRGCSERHGTDKTEFLWQSSDGSEVTAQVLPLGYAIGKYLPADENGLRKRLDSYFDVLEKASVTKEILLPNGHDQMPLQQNIFEVMDKLREIYPQRKFVMSRFEEVFEKIEAQRDNLATLKGEFIDGKYMRVHRTIGSTRMDIKIAHARIENKIVNLLEPLATLAWTLGFEYHHGLLEKMWKEILKNHAHDSIGCCSDKVHREIVARFELAEDMADNLIRFYMRKIADNMPQSDADKLVLFNLMPWPREEVINTTVRLRASQFNLRDDRGQPVPYFIRHAREIDPGLIDRQIVHYGNYDPFMEFDIQINQIVPSMGYRTLYIEANQPGNVIAAKSDAEGILENAFWQIALNEDGSLQLVDKDSGVRYDRVLQIEESSDDGDEYDYSPAKEEWVITAANAKPQCDIIHEAWQSRAVIRYDMAVPLNLSERSARQSTGRVGVVLVVTLSHNSRRIDVDINLDNQADDHRLRVLVPTPFNTDSVLADTQFGSLTRPVNDSAMNNWQQEGWKEAPVPVWNMLNYVALQEGRNGMAVFSEGLREFEVIGEEKKTFAITLLRGVGLLGKEDLLLRPGRPSGIKMPVPDSQLRGLLSCRLSLLSYTGTPTAAGVAQQARAWLTPVQCYNKIPWDVMKLNKAGFNVPESYSLLKMPPVGCLISALKKAEDRQEVILRLFNPAESATCDATVAFSREVISCSETMMDEHITTEENQGSNLSGPFLPGQSRTFSYRLA,not soluble
17,MKCSKCGREAVYFAKYEGKYYCHKHFNEMVESKVKRTIRKYRMIKKGERIGVAVSGGKDSVVLLHLLAKLRKKFPFEIVAITIDEGIKGYRDKSIKVAKKNAELLGVEHHIYRFKDYIGFTLDETVEIMGARGERLGACSYCGVWRRWLLNKAAEELKVDKLALGLNLDDEVQMFLMNLMRGDVARLGRTGPYYEVIHEGLVPRIKPLREVPEKEIVLYAVLNNIEVDLSECPYAVEAFRAEIRDWLNEMEEKHPGTKYQLLRSYDKIFPLLAKTYAKKVKLNRCKICGQPTSGEICKACQFRLQVKERAEKLKFSLSQR,soluble
18,MKDDPKVHLEAKELWDQFHKRGTEMVITKSGRRMFPPFKVRCSGLDKKAKYILLMDIIAADDCRYKFHNSRWMVAGKADPEMPKRMYIHPDSPATGEQWMSKVVTFHKLKLTNNISDKHGFTILNSMHKYQPRFHIVRANDILKLPYSTFRTYLFPETEFIAVTAYQNDKITQLKIDNNPFAKGFRDTGNGRR,soluble
19,MKDDRQKASVLAVRMIPNVDLAMCKEFSMPEGHRSIGLITSDCDDVTYTALDDATKKADIKVVYAKSFYGGAANANTKLAGEVIGIISGPNPAEVKSGLSAVVDFVENEAAFISANEDDSIAYYAHCISRTGSYLSEVAGIPEGESIAYLIAPPLEAMYALDVALKSANVELVAFYGPPSETNFGGGLLTGSQSACKAACDAFAEAVKAVAANPLGY,not soluble
20,MKDVSTDAPVDSARIINGKFAFADTTKIENPVIKILSIHASKMGLEYRLPVVIENGTIKASIADVVCTEGTMLNERMQDFLLAIDAYSAACTDKPVEQIKSGFSELLKRYIEMNNDNVIGTYIQTAYQSSL,not soluble
21,MKEACSSSSHVPVSDSKYILKSELLSLLKTYNCYHEGRSFQLRHREEEGTLIIEGLLNIAWGLRRPIRLQMQDDRERVHLPSATWVPERLSYLQKEASPQDSKVPTEEPGTQPANKAEVSGDSSGALEGEEEEVPQLMRTKSDASCIIQRRSKSRAPSEAQKIRRHRFSINGHFYNHKVKSPSALSWALKLRVQELFPSTEERAPNIQHSSHSSIR,soluble
22,MKEAYAQELIDYYNQSTNDVLKRTASISENEKPRVLFLVYDQRKNSYWTPGGEFYQNNLITMAGGKTVSSDLPTGKAQINVEQAASWNPDVIITSAHTMEYPSTKVKEDVLTDEGWKEINAVKSGNVYAMPFDGESWDTLGSKYVLGLYWTAKTLHPDMYLEHHHHHH,soluble
23,MKEIWLLAESESWDEAKEMLKDAIEIGFDGALVRRDFLERAEKLGRMKIVPIEDAVVKISSAEDQERALQREVVVLKFEDWKVIPLENIVAMKKSGKVIAAVDTIEDAKLALTTLERGADGIAVSGDRETLRKFYEVVKEEGERVELVRARVKEIRPLGVGERVCIDTVTLMTPGEGMLVGNQASFMFLVASESEESEYVASRPFRVNAGSVNAYLKVGDKTRYLAELKAGDEVEVVKFDGAVRKSYVGRVKIERRPLILIRAEVDGVEGSVILQNAETIKLVAPDGKHVSVAELKPGDEILVWLGKKARHFGVEVDEFIVERLEHHHHHH,soluble
